In article PMC2217413 (The Journal of General Physiology, 2004):
One block for each binder: values may come before it.

Molecular target: calmodulin immobilized on agarose beads (CaM-agarose) (UniProt P62157 1-149)
Experiment: pull-down

binding result: binds
B1: GST-fusion protein of TRPV1 amino acids 189–250 (domain or fragment)
chain: FVNASYTDSYYKGQTALHIAIERRNMTLVTLLVENGADVQAAANGDFFKKTKGRPGFYFGEL

binding result: binds
B2: GST-fusion protein of TRPV1 amino acids 149–222 (domain or fragment)
chain: KDPETGKTCLLKAMLNLHNGQNDTIALLLDVARKTDSLKQFVNASYTDSYYKGQTALHIAIERRNMTLVTLLVE

binding result: binds
Binder: FVNASYTDSYYKGQTALHIAIERRNMTLVTLLVE (domain or fragment) [GST-fusion protein of TRPV1 amino acids 189–222]
